Ki and Kd data for 17 molecules are collected here from US6124449, “High affinity TGFβ nucleic acid ligands and inhibitors” (NeXstar Pharmaceuticals, Inc.).

The target in data set [1] is T1, TGF-beta1 (hTGF-beta1) (Homo sapiens, UniProt P01137 P01137:279-390). The data set is described as follows: cell_activity; MLEC growth suppression reversal. Conditions: tags: R&D Systems; biotinylated form (NFTG0) used for BIAcore; chain copies: 2; label: 5'-biotin for BIAcore specificity; proposed double pseudoknot. The method, then: Cells were plated at 10^5/mL in 96-well plates in MEM, 10 mM HEPES and 0.2% FBS. Following 4 hours of incubation at 37° C., when cells appeared to attach to the well surface, TGFβ1 was added at 2 pM with or without TGFβ1 ligands that ranged from 0.1 nM to 1 µM. In a second assay performed in order to determine cross-species reactivity, rather than using hTGFβ, a conditioned serum-free medium (CM) was used. CM was conditioned by culturing it in murine 3T3 fibroblast for 48 hours. Before use, this conditioned medium was heat treated at 80° C. for 10 minutes to activate the 3T3 cell derived TGFβ and then it was diluted to 50% and supplemented with 0.2% murine serum. In each assay, hTGFβ1 (or CM) was diluted appropriately in MEM and FBS (0.2% or murine serum) and the ligands were diluted in MEM. TGFβ1 (or CM) and ligand dilutions at 10× the final concentration were premixed at equal volumes and then were added to the cells. […] After incubation, the cells were washed and harvested with SKATRON filtering units and ^3H-thymidine incorporation in cellular DNA was quantitated by scintillation counting in Ecoscint. Data were plotted and analyzed as described in Park et al. (1990) J. Exp. Med. 171:1073) and Dower et al. (1984) J. Immunol.
Background: SPR reads the build-up and loss of mass on a sensor chip optically.

Data set [2] concerns the target T1, TGF-beta1 (hTGF-beta1). Put plainly: filter; biphasic; Kd1 4.6±0.7 nM. Particulars: tags: R&D Systems; biotinylated form (NFTG0) used for BIAcore; chain copies: 2.
The target in data set [3] is T1, TGF-beta1 (hTGF-beta1). Put plainly: filter; biphasic; Kd1 13.9±4.3 nM. Particulars: tags: R&D Systems; biotinylated form (NFTG0) used for BIAcore; chain copies: 2.
The target in data set [4] is T1, TGF-beta1 (hTGF-beta1). The data set is described as follows: cell_activity; MLEC assay. Conditions: tags: R&D Systems; biotinylated form (NFTG0) used for BIAcore; chain copies: 2. Here is the method:
Cells were plated at 10^5/mL in 96-well plates in MEM, 10 mM HEPES and 0.2% FBS. Following 4 hours of incubation at 37° C., when cells appeared to attach to the well surface, TGFβ1 was added at 2 pM with or without TGFβ1 ligands that ranged from 0.1 nM to 1 µM. In a second assay performed in order to determine cross-species reactivity, rather than using hTGFβ, a conditioned serum-free medium (CM) was used. CM was conditioned by culturing it in murine 3T3 fibroblast for 48 hours. Before use, this conditioned medium was heat treated at 80° C. for 10 minutes to activate the 3T3 cell derived TGFβ and then it was diluted to 50% and supplemented with 0.2% murine serum. In each assay, hTGFβ1 (or CM) was diluted appropriately in MEM and FBS (0.2% or murine serum) and the ligands were diluted in MEM. TGFβ1 (or CM) and ligand dilutions at 10× the final concentration were premixed at equal volumes and then were added to the cells. Following addition of the TGFβ1 (or CM)-ligand mixture, the cells were incubated for 16–18 hours prior to addition of ^3H-thymidine at 0.25 µCi per well and continued incubation for 7–8 additional hours. After incubation, the cells were washed and harvested with SKATRON filtering units and ^3H-thymidine incorporation in cellular DNA was quantitated by scintillation counting in Ecoscint. Data were plotted and analyzed as described in Park et al. (1990) J. Exp. Med. 171:1073) and Dower et al. (1984) J. Immunol.

Data set [5] addresses T1, TGF-beta1 (hTGF-beta1). Put plainly: filter; biphasic; Kd1 14.2±4.5 nM. Particulars: tags: R&D Systems; biotinylated form (NFTG0) used for BIAcore; chain copies: 2.
Data set [6] concerns the target T1, TGF-beta1 (hTGF-beta1). The data set is described as follows: filter; biphasic; Kd1 3.8±0.9 nM. Particulars: tags: R&D Systems; biotinylated form (NFTG0) used for BIAcore; chain copies: 2.
Data set [7] has as its target T1, TGF-beta1 (hTGF-beta1). Put plainly: filter; biphasic; Kd1 11.5±2.0 nM. Particulars: tags: R&D Systems; biotinylated form (NFTG0) used for BIAcore; chain copies: 2.
In data set [8] the target is T1, TGF-beta1 (hTGF-beta1). The data set is described as follows: filter; biphasic; Kd1 4.05±1.5 nM. Particulars: tags: R&D Systems; biotinylated form (NFTG0) used for BIAcore; chain copies: 2.
Data set [9] concerns the target T1, TGF-beta1 (hTGF-beta1). Put plainly: filter; biphasic; Kd1 67 nM; P2 4.3%. Conditions: tags: R&D Systems; biotinylated form (NFTG0) used for BIAcore; chain copies: 2.
The target of data set [10] is T1, TGF-beta1 (hTGF-beta1). Put plainly: filter; biphasic; Kd1 20.7±13.8 nM. Particulars: tags: R&D Systems; biotinylated form (NFTG0) used for BIAcore; chain copies: 2.
Data set [11] addresses T1, TGF-beta1 (hTGF-beta1). Put plainly: filter; biphasic; Kd1 6.02±1.5 nM. Conditions: tags: R&D Systems; biotinylated form (NFTG0) used for BIAcore; chain copies: 2.
Data set [12] deals with T1, TGF-beta1 (hTGF-beta1). Put plainly: filter; biphasic; Kd1 71.8 nM; P2 4.3%. Particulars: tags: R&D Systems; biotinylated form (NFTG0) used for BIAcore; chain copies: 2.
Data set [13] addresses T1, TGF-beta1 (hTGF-beta1). The data set is described as follows: filter; biphasic; Kd1 2.82±1.7 nM. Particulars: tags: R&D Systems; biotinylated form (NFTG0) used for BIAcore; chain copies: 2.
Data set [14] concerns the target T1, TGF-beta1 (hTGF-beta1). The data set is described as follows: filter; biphasic; Kd1 12.7±4.7 nM. Particulars: tags: R&D Systems; biotinylated form (NFTG0) used for BIAcore; chain copies: 2.
Data set [15] deals with T1, TGF-beta1 (hTGF-beta1). Put plainly: filter; biphasic; Kd1 7.7±1.6 nM. Particulars: tags: R&D Systems; biotinylated form (NFTG0) used for BIAcore; chain copies: 2.
The target of data set [16] is T1, TGF-beta1 (hTGF-beta1). Put plainly: filter; biphasic; Kd1 12.3±2.4 nM. Conditions: tags: R&D Systems; biotinylated form (NFTG0) used for BIAcore; chain copies: 2.
Data set [17] concerns the target T1, TGF-beta1 (hTGF-beta1). The data set is described as follows: filter; biphasic; Kd1 23±6.4 nM; labelled 30-35 in Table 4 class 7 but sequence is 30-25. Conditions: tags: R&D Systems; biotinylated form (NFTG0) used for BIAcore; chain copies: 2.
The target in data set [18] is T1, TGF-beta1 (hTGF-beta1). Put plainly: filter; biphasic; Kd1 5.0±0.6 nM. Particulars: tags: R&D Systems; biotinylated form (NFTG0) used for BIAcore; chain copies: 2.

Substitutions are numbered along the chain they refer to.

T1 sequence (P01137 279-390, one chain of several): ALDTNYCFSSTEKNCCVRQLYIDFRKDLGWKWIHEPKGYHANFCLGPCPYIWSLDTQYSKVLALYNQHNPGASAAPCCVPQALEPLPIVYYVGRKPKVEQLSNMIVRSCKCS

B1: 40-03 (ssRNA)
RNA: GGGAGGACGAUGCGGGGGUUAUUGGGCGUCAACAUCCCCGAUUCUUUUCACGUCCAGACGACUCGCCCGA
modifications: 2'-F C and U
One may read the Ki as the dissociation constant of the complex between target and ligand, obtained from inhibition or displacement. On to B1, for which, in the data set with TGF-beta1 (hTGF-beta1) [1], the Ki worked out at 400 pM.

B2: 40-11 (ssRNA)
RNA: GGGAGGACGAUGCGGUGCCUUUAGUCUGAAUCUUCUACCAUGAUUCUCUGCCGCAGACGACUCGCCCGA
modifications: 2'-F C and U
Broadly, the Kd is the free concentration of one partner at which half of the binding sites on the other are occupied at equilibrium, for simple one-to-one binding. A higher Kd goes with weaker binding. B2 came in with a Kd in the data set with TGF-beta1 (hTGF-beta1) [2] of 4.9 pM.

B3: 40-22,35 (ssRNA)
RNA: GGGAGGACGAUGCGGUUAGGGGCGUCAACACCGCUAUUACAAUUUUCGCUUCCCAGACGACUCGCCCGA
modifications: 2'-F C and U
B3 returned a Kd in the data set with TGF-beta1 (hTGF-beta1) [3] of 17.6 pM.

B4: 40-23 (ssRNA)
RNA: B3 RNA with U44C
modifications: 2'-F C and U
In the case of B4, in the data set with TGF-beta1 (hTGF-beta1) [4], the affinity corresponds to a Ki of 750 pM. Besides, in the data set with TGF-beta1 (hTGF-beta1) [5], binding was put at a Kd of 15.6 pM.

B5: 40-41 (ssRNA)
RNA: GGGAGGACGAUGCGGUGCCUUUAGCCUGAGUAUACUGAUGUAUAUUCUCUGCCGCAGACGACUCGCCCGA
modifications: 2'-F C and U
B5 displayed a Kd with TGF-beta1 (hTGF-beta1) [6] of 1.4 pM.

B6: 40-39 (ssRNA)
RNA: GGGAGGACGAUGCGGUGCCUUUAGCCUAAGUUGAUCUAUUCAGCUUUCUGCCGCAGACGACUCGCCCGA
modifications: 2'-F C and U
In the data set with TGF-beta1 (hTGF-beta1) [7], B6 gave a Kd of 8.78 pM.

B7: 30-10 (ssRNA)
RNA: GGGAGGACGAUGCGGUGUCUUUAGCCUAGGUGAUUCCUUCUGCCGCAGACGACUCGCCCGA
modifications: 2'-F C and U
In turn, B7 had a Kd with TGF-beta1 (hTGF-beta1) [8] of 75.5 pM.

B8: 30-17 (ssRNA)
RNA: B7 RNA with U18C, C26U, U31C, G32U, A33U, U35G
modifications: 2'-F C and U
B8 registered a Kd in the data set with TGF-beta1 (hTGF-beta1) [9] of 205 pM.

B9: 30-35 (ssRNA)
RNA: B7 RNA with G45U
modifications: 2'-F C and U
B9 yielded a Kd with TGF-beta1 (hTGF-beta1) [10] of 224 pM.

B10: 30-39 (ssRNA)
RNA: B7 RNA with C26U
modifications: 2'-F C and U
In the data set with TGF-beta1 (hTGF-beta1) [11], B10 displayed a Kd of 32.5 pM.

B11: 30-16,27,38,46 (ssRNA)
RNA: B7 RNA with U18C, C26U, U31C, G32A, A33U, U35G
modifications: 2'-F C and U
Consider B11, for which, in the data set with TGF-beta1 (hTGF-beta1) [12], the affinity, expressed as Kd, was 211 pM.

B12: 30-12,24,21,40,41 (ssRNA)
RNA: GGGAGGACGAUGCGGUGUCUAUAGCCUGAUUUUUAAUCUCUGCCGCAGACGACUCGCCCGA
modifications: 2'-F C and U
Take B12: in the data set with TGF-beta1 (hTGF-beta1) [13], binding was characterised by a dissociation constant (Kd) of 60.8 pM.

B13: 40-24 (ssRNA)
RNA: GGGAGGACGAUGCGGUUAUGGGCGUCAACACCGCUAUUACAACUUUCGCUUUCCCAGACGACUCGCCCGA
modifications: 2'-F C and U
On to B13, for which, in the data set with TGF-beta1 (hTGF-beta1) [14], the Kd is 27.5 pM.

B14: 40-26 (ssRNA)
RNA: B13 RNA with U19G, C31U, C43U, U44C, U50C
modifications: 2'-F C and U
In turn, B14 came in with an equilibrium dissociation constant (Kd) in the data set with TGF-beta1 (hTGF-beta1) [15] of 40.8 pM.

B15: 40-28 (ssRNA)
RNA: B13 RNA with U19G, U50C, U52C, C53A
modifications: 2'-F C and U
B15 registered a Kd in the data set with TGF-beta1 (hTGF-beta1) [16] of 81.6 pM.

B16: 30-25 (ssRNA)
RNA: GGGAGGACGAUGCGGUUGGCAUUGAAAGAGGCGUCAUAUGUUCGCCAGACGACUCGCCCGA
modifications: 2'-F C and U
As for B16, the Kd with TGF-beta1 (hTGF-beta1) [17] came to 1.14 pM.

B17: 40-04 (ssRNA)
RNA: GGGAGGACGAUGCGGAUGCCUUUUGCCUUCAGGGUGUAAUUCCUUGAUCUGUCCGCAGACGACUCGCCCGA
modifications: 2'-F C and U
The molecule B17 came in with a Kd with TGF-beta1 (hTGF-beta1) [18] of 1.4 pM.
